# Source: paper PMC6908968 (Cell, 2019)
# Like-named read-outs stand apart in the source and are kept apart here.
# Key:
# [1] = target: T1, EBOV GP ectodomain residues 1-636 (GPec) (Zaire ebolavirus, strain  …, UniProt Q05320)
# [2] = target: T2, thermolysin-cleaved EBOV GP on Jurkat-GP cells (cleaved GP) (Zaire ebolavirus, Makona (GP1 core …, strain))
# T2 chain 1: not shown
# T2 chain 2: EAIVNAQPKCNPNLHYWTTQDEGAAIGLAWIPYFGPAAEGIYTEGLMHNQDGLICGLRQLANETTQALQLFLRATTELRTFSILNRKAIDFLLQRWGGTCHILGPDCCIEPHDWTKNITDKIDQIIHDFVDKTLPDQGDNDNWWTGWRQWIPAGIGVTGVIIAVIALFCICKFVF
# [3] = target: EBOV glycoprotein (GP), Makona strain, full length mature, on Jurkat-GP cells (native GP) (Zaire ebolavirus, Makona (stand-in: …, UniProt P87666, strain))
# [4] = target: T1, EBOV GP ectodomain residues 1-636 (GPec); test: ELISA; details: both partners purified
Binder,binding result [1],binding result [2],binding result [3],binding result [4]
"9.1.c1533 (antibody, V domains shown) VH: QVQLQESGPGLVKPSGTLSLTCTVSGGSISSNNWWSWVRQSPGKGLEWIGEIYHSGSTNYNPSLKSRVTISVDKSKNQFSLKVSSVTAADTAVYYCARGDQLIYYFDYWGQGTLVTVSS VL: QSALTQPASVSGSPGQSITISCTGSSSDVGVYDFVSWYQQHPGKAPKLMIYEVSNRPSGVSNRFSGSKSGNTASLTISGLQAEDEANYYCSSYTSSITNVVFGGGTKLTVL",binds,binds,–,–
"5.6.c4516 (antibody, V domains shown) VH: EVHLVESGGGLVQRGGSLRLSCVASKFSFSFYSMGWVRQPPGKGLEWVSFISISGTTIYYEDSVKGRFTISRDDAKNSLYLQMNSLRDEDTAVYYCARIPQAAFHFDYWGQGTLVAVSS VL: QSALTQPASVSGSPGQSITISCTGSSSDVGSYNLVSWYQQHPGKAPKLMIYEGSSRPSGVSNRFSGSKSGNTASLTISGLQAEDEADYYCCAYAGTRTWLFGGGTKVTVL",binds,binds,–,–
"5.6.c4515 (antibody, V domains shown) VH: QVQLVESGGDVVQPGRSLRLSCAASGFIFSTYGMHWVRQTPGKGLEWVAVLYYDGRNGYYADSVKGRFTISRDNSKNTLYLQMNSLRAEDTAVYYCARDGCSSTDCLLYYYAMDVWGQGTTVTVSS VL: QSALTQPPSASGSPGQSVTISCTGTSSDVGAYNYVSWYQQHPGKGPKLMIYEVNQRPSGVPGRFSGSKSGNTASLTVSGLQTEDEADYFCSSYAGSNTVVFGGGTKLTVL",binds,binds,–,–
"5.6.c3105 (antibody, V domains shown) VH: EEQLVESGGDLVQPGGSLRLSCAASGFTFRSYDMYWVRQVTGKGLEWVSVIGAGGDTYYSDAVKGRFTISRENAKNSLYLQMNNLRAGDTAVYYCARSFGFLYGFDVWGHGTTVTVSS VL: ENVLTQSPGTLSLSPGERATLSCRASQSISSKYFAWYQHKPGQAPRVLIYAASSRATGVPDRFSGSGSGTDFTLTISRLEPEDFAVYYCQQYDSSPITFGQGTRLEIK",binds,binds,binds,–
"9.1.c2296 (antibody, V domains shown) VH: QVQLVESGGGVVHPGRSLRLSCAASGFTFSTYGMHWVRQAPGKGLEWVAVISYDGTNKYYADSVKGRFTTSRDNSKNTLYLQMNSLRAEDTAVYYCAKGEAYYDILTGNIDMWGQGTMVTVSS VL: DIQMTQSPSTLSASVGDRVTITCRASQSISYWLAWYQQKPGKAPKVLIYDVSSLESGVPSRFSGSGSETEFTLTISSLQPDDFATYYCQQYHSYPLTFGGGTKVEIK",binds,binds,–,–
"9.1.c1500 (antibody, V domains shown) VH: QLQLQESGPGLVKPSETLSLTCTVSGGSISSSSYFWGWIRQPPGKGLELIGIIYYTGNTNYNPSLKSRVTISVDTSKNQFSLKLSSVTAADTAVYYCARSLEAHLLYYYAMDVWGQGTTVTVFS VL: QSALTQPRSVSGSPGQSVTISCTGTSSDVGGYNYVSWYQQHPGKAPKLMIYDVSQRPSGVPDRFSGSKSGNTASLTISGLQAADEADYYCCSYAGSSWVFGGGTKLTVL",binds,binds,–,–
"9.1.c1482 (antibody, V domains shown) VH: QLQLQESGPGLVKPSETLSLTCTVSGGSITSGSNYWGWIRQSPGKGLEWIGSIYYSGSTYYNPSLKSRVTTSVDTSKNQFSLRMSSVTAADTALYYCVRHLSTELLFGCFDPWGQGTLVTVSS VL: DIQMTQSPSTLSASVGDRVTITCRASQSITGWLAWYQQKPGKAPKLLIYDASSLESGVPSRFSGSGSGTEFTLTISSLQPDDFATYYCLQYHSYSSFGQGTKLEIK",binds,binds,–,–
"9.1.c1617 (antibody, V domains shown) VH: QVQFVESGGGLVKPGGSLRLSCTTSGFTFSDYYMSWIRQAPGKGLEWVSYISRSGNIIYYPDSVKGRFTISRDNAKNSLYLQMNSLRVEDTAVYYCAGGVQRGYNYYYYGMYVWGQGITVTVSS VL: DIVMTQSPLSLPVTPGEPASISCRSSQSLLHSNGYNYLDWYLQRPGQSPQLLIYLGSNRASGVPDRFSGSGSGTDFTLKISRVEAEDFGFYYCMQALQTPYTFGQGTKLEIR",binds,binds,–,–
"9.1.c1965 (antibody, V domains shown) VH: QVQLVQSGAEVKKPGASVKVSCKASGYTFTRYGINWVRQAPGQGLEWMGWISAYNGHTSYAQKLQGRVTMTTDTSTSTAYMELSSLRSDDTAVYYCARDAGMVRPYYFDYWGQGTLVTVSS VL: not shown",binds,binds,–,–
"5.6.c3363 (antibody, V domains shown) VH: EVKLVESGGDLIQPGGSLRLSCAGSGFTFSNYAMSWVRQAPGKGLEWVSGLSGSGRNTYYADSVKGRFTISRDNSQNTLFLQMNSLRAEDTAIYYCATASVWSGYVLQYWGQGALVIVSS VL: DIQMTQSPSSLSASVGDRVTITCRASQNINDWLAWYQQKPGKAPKLLIFRASSLESGVPSRFSGSGFGTEFTLTISSLQPDDFASYYCQQYKSYPMYTFGQGTKLDIN",binds,binds,binds,–
"mAb 2.1.6C11 (antibody, V domains shown) VH: GAEVKKPGASVKVSCKASGYTFTTYDINWVRQATGQGLEWMGWMNPNSGNTGYAQKFQGRVTMTRNTSISTAYMELRSLRSEDTAVYYCAPGVTFWGQGTLVTVSS VL: PSSLSAPVGDRVTITCRASQGISNSLAWFQQKPGKAPKSLIYAASSLQSGVPSNFSGSGSGTDFTLTISSLQPEDFATYYCQQYNSYPWTFGQGTKVEIK",–,–,–,binds
"9.1.c1853 (antibody, V domains shown) VH: EVQLVQSGAEVKKPGESLRISCKGSGNSFSSYWISWVRQKPGKGLEWMGRIDPSDSYTSYSPSFQGHVTISADKTNSTAYLQWSGLKASDTAVYYCAREVAGEEIFYYYYMDVWGKGTPVTVSS VL: EIVLTQSPVTLSLSPGEKATLSCRASQSVISSYLVWYQQKPGQAPRLLIYGASNRASGIPDRFSGSGSGTDFTLTISRLEPEDFAVYYCQLYGSLPRWTFGQGTEVQIK",binds,binds,–,–
"mAb 5.1.10B3 (antibody, V domains shown) VH: EVQLVESGGGLVQPGGSLRLSCAASGFTFRSYDMHWVRQATGKGLEWVSAIGTAGDTYYPGSVKGRFTISRENAKNSLYLQMNSLRAEDTAVYYCARVRFGDTAVDYWGQGTLVTVSS VL: DIQMTQSPSSLSASVGDRVTITCRASQSISSFLNWHQQKPGKAPKLLIYAASSLQSGVPSRFSGSGSGTDFTLTISSLQPEDFAIYYCQQSYISPFTFGPGTKVDIK",–,–,–,binds
